Laboratory results: PMC3230378 (The EMBO Journal, 2011)

Tests used:
Test in all cases: SPR
[1] = target: mouse NGL3_(LRR–Ig) (mouse) (UniProt P0C192)
[2] = target: NGL1-r1 mutant (human NGL1_(LRR–Ig) with the loop I binding region of NGL2) (human) (UniProt Q9HCJ2)
mouse NGL3_(LRR–Ig) = target: T1, mouse NGL3_(LRR–Ig) (mouse, UniProt P0C192 39-455)
T1 sequence (looked up): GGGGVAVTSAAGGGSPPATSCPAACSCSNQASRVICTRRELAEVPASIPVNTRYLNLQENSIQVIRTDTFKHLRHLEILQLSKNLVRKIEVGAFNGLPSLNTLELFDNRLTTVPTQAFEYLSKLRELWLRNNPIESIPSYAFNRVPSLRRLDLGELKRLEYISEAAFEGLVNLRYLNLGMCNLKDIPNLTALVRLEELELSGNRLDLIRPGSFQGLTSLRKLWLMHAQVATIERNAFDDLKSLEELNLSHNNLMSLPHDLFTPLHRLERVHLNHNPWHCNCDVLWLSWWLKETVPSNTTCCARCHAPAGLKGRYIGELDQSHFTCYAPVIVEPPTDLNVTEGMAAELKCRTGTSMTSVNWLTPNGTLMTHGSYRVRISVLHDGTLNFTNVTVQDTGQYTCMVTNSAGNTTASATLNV

## human NetrinG1_(Lam–EGF1/4), wild type (domain or fragment)
[1]
  Kd: > 100 µM
[2]
  fold decrease of binding against WT NGL1: > 10 fold

B1: human NetrinG2_(Lam–EGF1), wild type (domain or fragment, UniProt Q96CW9 18-345, looked up)
chain: DYDICKSWVTTDEGPTWEFYACQPKVMRLKDYVKVKVEPSGITCGDPPERFCSHENPYLCSNECDASNPDLAHPPRLMFDKEEEGLATYWQSITWSRYPSPLEANITLSWNKTVELTDDVVMTFEYGRPTVMVLEKSLDNGRTWQPYQFYAEDCMEAFGMSARRARDMSSSSAHRVLCTEEYSRWAGSKKEKHVRFEVRDRFAIFAGPDLRNMDNLYTRLESAKGLKEFFTLTDLRMRLLRPALGGTYVQRENLYKYFYAISNIEVIGRCKCNLHANLCSMREGSLQCECEHNTTGPDCGKCKKNFRTRSWRAGSYLPLPHGSPNACA
Mouse NGL3_(LRR–Ig)
  Kd: > 100 µM
